Broadly, the pIC50 is the negative decadic logarithm of the IC50, by convention in mol/L.

These results are taken from the Immune Epitope Database (IEDB).

pIC50: −log10 of the molar value.

The target of one test is HLA-A*02:01. Briefly: IEDB peptide-MHC binding, purified MHC/competitive/radioactivity; ≥ and ≤ were set here for values at or beyond the usual limits of such assays. As to conditions: source organism: Influenza A virus.
As to LLFLKVPA, the pIC50 is 6.58.

The test is the same for the next values; noted with them: source organism: Mammarenavirus brazilense.
As for GLFQLIFFL, the negative logarithm of the IC50 (pIC50) was 9.36. The same measure, in the same setting: the result for GLFQLIFFLT reads 5.91; that for NLSNCVHPAV, 6.82.

Staying with this test, now noted: source organism: Mammarenavirus choriomeningitidis.
In the case of ALPHIIDEV, the pIC50 was 7.24.

Staying with this test, now noted: source organism: Mammarenavirus juninense.
With SLKAFFSWSL, the pIC50 was 5.80.

The test is the same for the next values; noted with them: source organism: Mammarenavirus lassaense.
With LMDCIMFDAA, the pIC50 is 6.23. Turning to ALMDCIMFDA, the pIC50 is 8.96.

For SLQSAGFTA, the pIC50 was 5.90.

Staying with this test, now noted: source organism: Mammarenavirus machupoense.
For FLQEALNIA, the pIC50 was 8.16.

The same test, now with this note: source organism: Mammarenavirus whitewaterense.
Take YVNHTGFNV: the pIC50 is 6.32.

FTPQIICGNV: the pIC50 is 6.01.

Still in this test, the particulars now being: source organism: Vaccinia virus WR.
Take ILQYDLWNV: the pIC50 was 9.77. TLVAIFSYI: the pIC50 was 6.06. As to TLLCVLPAV, the negative logarithm of the IC50 (pIC50) is 9.00.

Consider IVMDNDDNIL, for which the pIC50 is 6.05. Take RVQSFKINI: the pIC50 was 6.11. For the sequence FINFFNLLA, the pIC50 is 6.14. As to TISVVTLLCV, the pIC50 was 5.47. Still for that read-out and setting: to KIFIDNIYIV belongs 6.28; to RTNEEFDPV, 6.85; to GMLFVNDLMT, 6.08. The same measure, in the same setting: to VLNIVLFIL belongs 6.41. With YLPKQPEGVI, the pIC50 was 6.55. As for HMNEIRINI, the pIC50 is 6.17.

As for PITDSLSFKL, the pIC50 is 5.58.

TIIALLFAL: the pIC50 is 7.92. Still for that read-out and setting: the result for FIDTVSVYT reads 6.64; that for FVIVIYIFT, 5.46; that for VTLQKVLHV, 6.21. Same read-out and setting: to YIYYFFIRL belongs 8.06; to TINCDVGYEV, 6.41; to SLMDMITLSL, 9.23. On to KLTFLDVEV, for which the pIC50 is 7.03.

As to HQWDIDSAI, the pIC50 was 6.00. The same measure, in the same setting: the result for RIIDSEVVV reads 7.03. Still for that read-out and setting: the result for AVTKTDGIPI reads 5.83. NIVIFVKRL: the pIC50 was 5.89. For the sequence NVDSTDELM, the negative logarithm of the IC50 (pIC50) is 5.71. The same measure, in the same setting: the result for ILYMVVDGSV reads 6.97. On the same count and under the same terms, the result for DLYDYITRI reads 5.99; that for MVISLLSMI, 6.81; that for TMLSIILVI, 8.85. With STFIMLEGET, the pIC50 was 5.46.

As for FLPIIFDAFL, the negative-log IC50 (pIC50) is 9.66. FMIITSTKTI: the negative logarithm of the IC50 (pIC50) is 5.83.

With KTISVVTLL, the pIC50 was 6.54.

Consider ELYNKPLYEV, for which the pIC50 was 9.10. Still for that read-out and setting: the result for VLEYIYGGKT reads 5.84. Still for that read-out and setting: the result for KLQAAPYIV reads 8.92.

For the sequence QLYLTVSFI, the negative logarithm of the IC50 (pIC50) is 5.48. With VMKLFTISV, the negative-log IC50 (pIC50) is 8.10. Regarding VLYNGVNYL, the pIC50 is 9.60. The same measure, in the same setting: to YANCSSISI belongs 6.05; to LQYDLWNVV, 7.66; to FIKQGFNNLV, 6.92.

As for PMLYQLLEAV, the pIC50 was 5.96. For the sequence SLYDQKEINA, the negative-log IC50 (pIC50) was 6.57. Same read-out and setting: to TLSRHIFMA belongs 8.21; to FIDILLFVI, 7.85.

As for IVMDNDDNI, the pIC50 was 6.35. As for IAISSLNKL, the pIC50 was 5.82. As for ELMYIFAAL, the pIC50 is 6.97. Consider FTLNHVLAL, for which the pIC50 was 8.82.

With ILTREMGFLV, the pIC50 is 8.15. With KLFFAKCLV, the pIC50 was 7.64. On the same count and under the same terms, to CVLPAVVYST belongs 6.52; to YITALNHLVL, 6.55. Same read-out and setting: the result for YIIRVTTEL reads 7.44; that for FVIVIYIFTV, 6.91.

As for FLIVRLNQCM, the pIC50 is 7.47. For SLSSIRFHI, the pIC50 is 7.96. For LLLLLFHSYA, the negative logarithm of the IC50 (pIC50) was 8.01. On to RTLLGLILFV, for which the pIC50 was 7.70. For the sequence KLMIYGLPWM, the pIC50 is 7.96. Still for that read-out and setting: the result for LTFNFTPKI reads 6.60; that for YQLAGYILT, 7.80; that for GLISGSTFSI, 7.66.

For ILLTLRMTQL, the pIC50 was 6.44.

Regarding FVNKHLPTM, the negative logarithm of the IC50 (pIC50) was 5.80. On the same count and under the same terms, the result for RLLDLFGPEV reads 9.01; that for SIINRDIIV, 6.16; that for ATNIFPFFV, 7.77. Same read-out and setting: to LTNEIYASII belongs 5.36; to KLLKMVTSV, 8.92.

With FMASPENVI, the negative-log IC50 (pIC50) was 7.89.

As for VMISILNPV, the pIC50 was 7.48. Still for that read-out and setting: to FLKYSRSKPA belongs 5.45. On to IQAKTKNFTI, for which the pIC50 is 5.37.

For the sequence NVFETRIVM, the pIC50 was 5.58. Still for that read-out and setting: to QLLEAVYGNI belongs 6.70; to AMFTAALNI, 8.62. Still for that read-out and setting: the result for YVKTLLISM reads 5.72; that for KTDGIPITI, 7.32; that for EILGIAHLL, 5.36.

In the case of LVVDNGELM, the negative logarithm of the IC50 (pIC50) was 5.44.

In the case of LLFLVCFPST, the negative logarithm of the IC50 (pIC50) is 6.38. On the same count and under the same terms, to FMQRIISLSV belongs 8.74. Same read-out and setting: the result for IIAIVFVFI reads 6.62. For ILMYPTTLL, the pIC50 was 8.15.

IVYCLNALV: the pIC50 is 6.99. The same measure, in the same setting: the result for MMMMKWIISI reads 8.00.

For the sequence YLAIPDLYGI, the pIC50 is 8.09. On the same count and under the same terms, to LISLTNEIYA belongs 5.91; to LLVQRVTSV, 8.51; to TMLMFIFTGI, 9.05.

As for CIDGKWNPV, the pIC50 was 8.08. NMNYSDDYMM: the pIC50 is 5.58. Regarding NLPSSENYM, the negative-log IC50 (pIC50) is 6.87. In the case of SLNRTIVTKV, the pIC50 was 7.17. Take ALTNAQFFV: the pIC50 is 8.89. Still for that read-out and setting: to FIIEVSNCV belongs 7.89; to FLTAALPVKL, 6.42; to IVALTIMGV, 7.57.

With FIVVATAAV, the pIC50 is 8.15.

For the sequence FTPRDNETV, the pIC50 was 6.06.

Regarding FQYVSYSNFI, the pIC50 is 5.84. Same read-out and setting: to TVMNNLSEL belongs 6.27; to MTLSCNGET, 5.71. On to NIYCLEYINT, for which the negative-log IC50 (pIC50) is 6.05. Consider RVYEALYYV, for which the pIC50 was 8.82. Still for that read-out and setting: to TIATYIDAL belongs 6.21; to IIFGESSIFV, 8.89; to VMAYVGIKL, 5.88. LIAFSSGTV: the pIC50 is 5.74.

With KILAIIFLVL, the negative-log IC50 (pIC50) is 6.42.

As to YIFAALGGSV, the pIC50 is 7.35. In the case of CLVVSTKGDV, the pIC50 was 6.17. On the same count and under the same terms, the result for LITWLIDYV reads 7.15; that for KLMGTITLNA, 7.92. Still for that read-out and setting: the result for HLIKIPLLI reads 8.72; that for IMYTYFSNTI, 7.00. The same measure, in the same setting: the result for ILLFVIVIYI reads 8.11; that for IVEVPEDGI, 5.61. For MLPKQDIVGL, the pIC50 is 7.02. On the same count and under the same terms, the result for TLIDDPDNNL reads 6.11; that for RMQRISGSNI, 5.36. Take YIIDWMVDI: the pIC50 is 9.04. As for IVFVFILTA, the pIC50 was 6.53. As for LLISMYCSKT, the pIC50 was 5.94.

For the sequence LTREMGFLV, the negative-log IC50 (pIC50) is 5.63.

As to GLSGDSERV, the pIC50 was 6.20. Still for that read-out and setting: to SLVEMMWDL belongs 7.96; to SLHSLSVET, 6.58. As to LLIHFLLSL, the pIC50 is 7.77. Take IVSVSESNI: the pIC50 is 5.63. Regarding NLNMTDGDSV, the pIC50 was 5.36.

With IILAISALL, the pIC50 is 7.92. On to LAALFMYYA, for which the pIC50 is 7.28. For the sequence TIMGVIFLI, the pIC50 is 8.02. Turning to MLYFAGGLSV, the pIC50 is 9.46. In the case of YMFFVIKNL, the pIC50 was 7.68. In the case of NLLSKNTFYL, the negative-log IC50 (pIC50) is 8.85.

For FILHRLHEI, the negative logarithm of the IC50 (pIC50) is 9.19. Still for that read-out and setting: to SITKEKIKI belongs 5.32; to FTSSFYNYV, 9.34; to VVCNDLYKV, 6.76.

As for AIIGLCAYA, the pIC50 is 7.09.

Turning to VLYPVIFIT, the pIC50 is 8.03.

Take CMAFTIPSI: the pIC50 is 9.05.

SLEATYHII: the pIC50 was 6.12.

In the case of FIILLLAIV, the pIC50 is 6.22.

As for STAVNEEWL, the pIC50 was 5.33. For the sequence LQKFSFKIA, the pIC50 is 5.33. Turning to LVDNVDFAT, the pIC50 was 6.34. SQSERDNYI: the pIC50 is 5.92. Still for that read-out and setting: the result for TAKSSFVCGI reads 5.95. For MITMSAFLI, the pIC50 is 6.37. The same measure, in the same setting: to GLVRLNAFL belongs 8.77.

Take LTNEIYASI: the pIC50 is 6.06.

Take YLFRIVSTV: the pIC50 is 8.92. On to VLYDEFKCFI, for which the pIC50 was 8.23. On to GIFCFRILL, for which the pIC50 is 8.11. Same read-out and setting: the result for ILSNYVKTL reads 6.50; that for ILGILYLYET, 7.14. Same read-out and setting: the result for VMNNLSELTA reads 6.34; that for IILVIIVVI, 6.38; that for YLVSSLSEI, 8.19. Take NLYDDNDIRT: the pIC50 is 7.40.

Turning to MLNGIMYRL, the pIC50 was 9.46. As to YQYVRLHEM, the pIC50 was 8.04. On the same count and under the same terms, the result for LIYSMEFTNL reads 6.46; that for QAKTKNFTI, 5.42. Consider RLYDYFTRV, for which the pIC50 was 7.96. Same read-out and setting: the result for ETIGNQLYL reads 5.45; that for GTGYYKYFI, 5.78; that for YLSSWTPVV, 9.48. For the sequence DTVFDYYVL, the pIC50 was 7.27.

In the case of ILFNLSKFLL, the pIC50 was 8.40. Same read-out and setting: to HLIFSYAFL belongs 6.98. The same measure, in the same setting: the result for IILLFDFSI reads 6.79.

On to KIDKLRQIV, for which the pIC50 is 5.81. Same read-out and setting: the result for KTIIDPDFV reads 6.46. As to VMTPSPFYT, the negative-log IC50 (pIC50) was 5.58.
